The assay has as its target NP‐WT S nanoparticles (nanoparticles coated with WT spike proteins) (SARS-CoV-2). Put plainly: SPR. For orientation: SPR reads the build-up and loss of mass on a sensor chip optically.

What is called koff is the first-order rate constant of dissociation. The low end stands for slow dissociation, the high end for fast dissociation.

B1: P5‐1C8 IgG (full‐length) (antibody, V domains shown)
VH: EVQLVESGGGLIQPGGSLRLSCAASEIIVSRNYMNWVRQAPGKGLEWVSVIYSGGSTFYADSVKGRFTISRDNSENTLYLQMNSLRAEDTAVYYCARGYGDYYFDYWGRGTLVTVSS
VL: not shown
B1 came in with a dissociation rate constant (koff) of 2.19e-05 s⁻¹.

Values taken from PMC12931240 (2025).
